Our source for the enrichment values is paper PMC13397619.

The chains are these.
B1: NLV3 TCR beta chain (CDR3β only) (parent)
chain: ASSPTGGSPSPLH

In this assay the parent is B1. Briefly: T-Switch: Jurkat TCRβ−/− cells expressing a CDR3 saturation-mutagenesis library, stained with two peptide-HLA-A*02:01 tetramers (original and novel peptide) plus anti-CD3, FACS-sorted into four gates, gDNA sequenced. To be noted: tetramers 1 µg/mL, 30 min on ice, SP, DP and SW gates expanded about 10 days between rounds ('two to three rounds of selection' in the Methods), unresolved parent, parent is a CDR3 fragment, scale: fold enrichment, numbering: sequential-on-construct, sequence starts at 1.

Setting [1] is: with both tetramers (double-negative gate, binds neither): HLA-A*02:01 with … and with …, gate DN: OPPOSITE: higher = more of the variant in the gate that binds neither peptide = LESS binding (or no expression; inferred). Fold enrichment of the CDR3 variant in one FACS gate of a two-tetram.
Where [2] appears, read: with both tetramers (double-positive gate): HLA-A*02:01 with … and with …, gate DP: higher = more of the variant in the gate that binds both peptides. Fold enrichment of the CDR3 variant in one FACS gate of a two-tetramer stain. SP/DP/SW gates were expanded and re-sorted bef.

[…] (CDR3 as printed); S2R derived by comparing it with the table's wild-type CDR3 ASSPTGGSPSPLH: the enrichment under setting [1] was found to be 0.703 and the enrichment under setting [2] was 0.
In the same order, the values of […] (CDR3 as printed); L12Y derived by comparing it with the table's wild-type CDR3 ASSPTGGSPSPLH are 1.11 and 0.
[…] (CDR3 as printed); P9I derived by comparing it with the table's wild-type CDR3 ASSPTGGSPSPLH: the enrichment was 1.11 under setting [1] and 0 under setting [2].
In the same order, the values of […] (CDR3 as printed); G7T derived by comparing it with the table's wild-type CDR3 ASSPTGGSPSPLH are 0.754 and 0.
In the same order, the values of […] (CDR3 as printed); T5I derived by comparing it with the table's wild-type CDR3 ASSPTGGSPSPLH are 0.355 and 0.
With […] (CDR3 as printed); P11R derived by comparing it with the table's wild-type CDR3 ASSPTGGSPSPLH, the enrichment by setting is: under setting [1], 0.579; under setting [2], 0.
In the same order, the values of […] (CDR3 as printed); S10K derived by comparing it with the table's wild-type CDR3 ASSPTGGSPSPLH are 1.05 and 0.
In the same order, the values of […] (CDR3 as printed); A1T derived by comparing it with the table's wild-type CDR3 ASSPTGGSPSPLH are 0.774 and 0.
In the same order, the values of […] (CDR3 as printed); G7M derived by comparing it with the table's wild-type CDR3 ASSPTGGSPSPLH are 0.978 and 0.
Take […] (CDR3 as printed); H13F derived by comparing it with the table's wild-type CDR3 ASSPTGGSPSPLH: the enrichment amounted to 0.541 under setting [1] and 0 under setting [2].
In the same order, the values of […] (CDR3 as printed); T5E derived by comparing it with the table's wild-type CDR3 ASSPTGGSPSPLH are 0.994 and 0.
In the same order, the values of […] (CDR3 as printed); P11V derived by comparing it with the table's wild-type CDR3 ASSPTGGSPSPLH are 1.05 and 0.
As to […] (CDR3 as printed); S10P derived by comparing it with the table's wild-type CDR3 ASSPTGGSPSPLH, the enrichment under setting [1] came to 1.37 and the enrichment under setting [2] came to 0.
In the case of […] (CDR3 as printed); S8T derived by comparing it with the table's wild-type CDR3 ASSPTGGSPSPLH, the enrichment under setting [1] stood at 1.42 and the enrichment under setting [2] is 0.
In the same order, the values of […] (CDR3 as printed); P11S derived by comparing it with the table's wild-type CDR3 ASSPTGGSPSPLH are 1.52 and 0.
In the same order, the values of […] (CDR3 as printed); G7Q derived by comparing it with the table's wild-type CDR3 ASSPTGGSPSPLH are 1.09 and 0.
As to […] (CDR3 as printed); P11D derived by comparing it with the table's wild-type CDR3 ASSPTGGSPSPLH, the enrichment by setting is: under setting [1], 0.46; under setting [2], 0.
In the same order, the values of […] (CDR3 as printed); L12H derived by comparing it with the table's wild-type CDR3 ASSPTGGSPSPLH are 0.844 and 0.
[…] (CDR3 as printed); G6C derived by comparing it with the table's wild-type CDR3 ASSPTGGSPSPLH: the enrichment reads like this: under setting [1], 0.841; under setting [2], 0.
In the same order, the values of […] (CDR3 as printed); G6K derived by comparing it with the table's wild-type CDR3 ASSPTGGSPSPLH are 1.4 and 0.
In the same order, the values of […] (CDR3 as printed); G6E derived by comparing it with the table's wild-type CDR3 ASSPTGGSPSPLH are 1.12 and 0.
In the same order, the values of […] (CDR3 as printed); S10E derived by comparing it with the table's wild-type CDR3 ASSPTGGSPSPLH are 1.41 and 0.
Turning to […] (CDR3 as printed); P4M derived by comparing it with the table's wild-type CDR3 ASSPTGGSPSPLH, the enrichment is, setting by setting: under setting [1], 0.718; under setting [2], 0.
In the same order, the values of […] (CDR3 as printed); G6N derived by comparing it with the table's wild-type CDR3 ASSPTGGSPSPLH are 1.47 and 0.
In the same order, the values of […] (CDR3 as printed); L12C derived by comparing it with the table's wild-type CDR3 ASSPTGGSPSPLH are 0.764 and 0.
In the same order, the values of […] (CDR3 as printed); S10W derived by comparing it with the table's wild-type CDR3 ASSPTGGSPSPLH are 1.12 and 0.
As for […] (CDR3 as printed); P4D derived by comparing it with the table's wild-type CDR3 ASSPTGGSPSPLH, the enrichment came out at 0.917 under setting [1] and 0 under setting [2].
In the same order, the values of […] (CDR3 as printed); G6L derived by comparing it with the table's wild-type CDR3 ASSPTGGSPSPLH are 0.967 and 0.
In the same order, the values of […] (CDR3 as printed); H13A derived by comparing it with the table's wild-type CDR3 ASSPTGGSPSPLH are 0.498 and 0.
With […] (CDR3 as printed); P11C derived by comparing it with the table's wild-type CDR3 ASSPTGGSPSPLH, the enrichment was determined as 0.758 under setting [1] and 0 under setting [2].
In the same order, the values of […] (CDR3 as printed); S8G derived by comparing it with the table's wild-type CDR3 ASSPTGGSPSPLH are 0.725 and 0.
In the same order, the values of […] (CDR3 as printed); S3L derived by comparing it with the table's wild-type CDR3 ASSPTGGSPSPLH are 0.942 and 0.
In the same order, the values of […] (CDR3 as printed); P11A derived by comparing it with the table's wild-type CDR3 ASSPTGGSPSPLH are 0.423 and 0.
With […] (CDR3 as printed); G7N derived by comparing it with the table's wild-type CDR3 ASSPTGGSPSPLH, the enrichment came to 0.87 under setting [1] and 0 under setting [2].
In the same order, the values of […] (CDR3 as printed); S3M derived by comparing it with the table's wild-type CDR3 ASSPTGGSPSPLH are 0.806 and 0.
In the case of […] (CDR3 as printed); P9L derived by comparing it with the table's wild-type CDR3 ASSPTGGSPSPLH, the enrichment turned out to be 1.2 under setting [1] and 0 under setting [2].
In the same order, the values of […] (CDR3 as printed); P4E derived by comparing it with the table's wild-type CDR3 ASSPTGGSPSPLH are 0.97 and 0.
In the same order, the values of […] (CDR3 as printed); P9D derived by comparing it with the table's wild-type CDR3 ASSPTGGSPSPLH are 0.994 and 0.
In the same order, the values of […] (CDR3 as printed); S2T derived by comparing it with the table's wild-type CDR3 ASSPTGGSPSPLH are 0.755 and 0.
For […] (CDR3 as printed); S2Q derived by comparing it with the table's wild-type CDR3 ASSPTGGSPSPLH, the enrichment is 0.653 under setting [1] and 0 under setting [2].
With […] (CDR3 as printed); S2C derived by comparing it with the table's wild-type CDR3 ASSPTGGSPSPLH, the enrichment under setting [1] turned out to be 0.867 and the enrichment under setting [2] is 0.
In the same order, the values of […] (CDR3 as printed); P11W derived by comparing it with the table's wild-type CDR3 ASSPTGGSPSPLH are 0.701 and 0.
In the same order, the values of […] (CDR3 as printed); S3C derived by comparing it with the table's wild-type CDR3 ASSPTGGSPSPLH are 0.656 and 0.
In the same order, the values of […] (CDR3 as printed); A1F derived by comparing it with the table's wild-type CDR3 ASSPTGGSPSPLH are 0.897 and 0.
With […] (CDR3 as printed); T5A derived by comparing it with the table's wild-type CDR3 ASSPTGGSPSPLH, the enrichment reads like this: under setting [1], 0.817; under setting [2], 0.
In the same order, the values of […] (CDR3 as printed); S3D derived by comparing it with the table's wild-type CDR3 ASSPTGGSPSPLH are 0.675 and 0.
In the same order, the values of […] (CDR3 as printed); G6R derived by comparing it with the table's wild-type CDR3 ASSPTGGSPSPLH are 0.796 and 0.
In the same order, the values of […] (CDR3 as printed); G7I derived by comparing it with the table's wild-type CDR3 ASSPTGGSPSPLH are 1.05 and 0.
On to […] (CDR3 as printed); L12M derived by comparing it with the table's wild-type CDR3 ASSPTGGSPSPLH, for which the enrichment worked out at 0.583 under setting [1] and 0 under setting [2].
In the same order, the values of […] (CDR3 as printed); L12V derived by comparing it with the table's wild-type CDR3 ASSPTGGSPSPLH are 0.702 and 0.
In the same order, the values of […] (CDR3 as printed); P4L derived by comparing it with the table's wild-type CDR3 ASSPTGGSPSPLH are 0.459 and 0.
As to […] (CDR3 as printed); G6H derived by comparing it with the table's wild-type CDR3 ASSPTGGSPSPLH, the enrichment under setting [1] stood at 1.05 and the enrichment under setting [2] was 0.
For […] (CDR3 as printed); S8Y derived by comparing it with the table's wild-type CDR3 ASSPTGGSPSPLH, the enrichment was found to be 0.351 under setting [1] and 0 under setting [2].
In the same order, the values of […] (CDR3 as printed); P9G derived by comparing it with the table's wild-type CDR3 ASSPTGGSPSPLH are 1.21 and 0.
In the same order, the values of […] (CDR3 as printed); S2F derived by comparing it with the table's wild-type CDR3 ASSPTGGSPSPLH are 0.437 and 0.
In the same order, the values of […] (CDR3 as printed); S8E derived by comparing it with the table's wild-type CDR3 ASSPTGGSPSPLH are 1.16 and 0.
For the variant […] (CDR3 as printed); G7H derived by comparing it with the table's wild-type CDR3 ASSPTGGSPSPLH, the enrichment stood at 0.687 under setting [1] and 0 under setting [2].
In the same order, the values of […] (CDR3 as printed); A1Q derived by comparing it with the table's wild-type CDR3 ASSPTGGSPSPLH are 0.998 and 0.
